{"source": "patent US20240336907A1", "about": "“NOVEL ENDO-ß-N-ACETYLGLUCOSAMINIDASE” (priority 2020, published 2024)", "molecules": {"B1": {"name": "Endo-Si WT: endo-β-N-acetylglucosaminidase derived from Streptococcus iniae, amino acid positions 34 to 928 in SEQ ID NO: 2 (protein, listed as Streptococcus iniae)", "chain": "REELKMPNGLEQSIADVEAKIDALTYLSKNSKDEFKHSMYEIPSNREHKPVSPKQALQNAKKADAQAERLAKMTIPKKEELKALEGPLYGGYFRTWQDKTSDPTETNKVNSFGELPKEVDLAFVFHDYTKDYSLFWEELATKQVPKLNKQGTRVIRTIPWRFLSGADHSDISADKEKFPNTEAGNKALAKAIVDEYVYKYNLDGLDIDIERDSVPKVNDKEDPEALARTVEVFKEIGKLIGANGADKSRLLIMDTTYTAEENPLIKETAQYLNLLLVQVYGFSGENGNYLHHKNILDETSSMEGRWQGYSKYIRPEQYMVGFSFYEEKDFNNRWKDINEEDPSDPHIGEKIQGTRAERYAKWQPKTGGLKGGLFSYAIDRDGVAQPKQKTEHPELDKIVKSEYKVSKALKKLMMTDDQYQPIDQSDFPDKALRESIIKQVGTRRGDLERFKGTLRLDNPEIKDLTGLNKLKRVAKLELINLPKITKIDKDDLPQNLKPLTDNQKSNLEIKGTYDDSKLYKDIPAFDLVISGLSGLESLDISGHQRDTLSGIDASTLPSLKAINISDNHFDLAQGTENRHILDTILATLAKNGASTASFDKQKPKGLYPESYSTAPLHLQVGQGKINVIDDLIFGTRTNQNTLINTENDFEAYKEQTIQGKPFIAPDYLYDNFKVSYKEYSASIVDSTLAETTDKTIDTAKAETYQVTVSNKDGKTVHSVKVIVGDEKPMMVNLAQDAKIIGTDNMTQSAKVFDGQKDQFLLSWNKDSSVIFELKTPGTAKHWRFFDDGKNDSVTLSVFKGDASNFETEKDKAENWVEITKDSRKNDDKVFSSPLEVDNAKYLKVTIKKEAKYIYFNELQILGYPGVVAKKTADDLRPTEADKSDDKSDKNDTEAK"}}, "key": {"IgE": {"test_system": "IgE", "test": "Substrate specificity in various antibodies (band shift in electrophoresis)", "format": "biochemical, human", "conditions": "10 μg substrate, 1 μg enzyme, 37° C., pH 7.5, two hours", "procedure": "(§1) The hydrolysis activities of Endo-Si, EndoS and PNGaseF on various antibodies were measured as follows. A 50 mM Tris-HCl buffer (pH 7.5) solution (50 μL) containing each of various substrates (10 μg), and 1 μg Endo-Si WT was prepared and incubated at 37° C. As the substrate, human IgG1-4, IgA, and IgE (all manufactured by Sigma Aldrich) were used. As the controls, 1 μg of EndoS WT and 500 U PNGase F PRIME (manufactured by N-zyme Scientifics) were used. Two hours after initiation of the reaction, a sample was taken from the reaction solution and analyzed for protein by a fully automated electrophoresis system mentioned above.\n(§2) When a sugar chain is hydrolyzed by addition of an enzyme, the band of a protein shifts to the lower molecular weight side compared to when the enzyme was not added."}, "IgA": {"test_system": "IgA", "test": "Substrate specificity in various antibodies (band shift in electrophoresis)", "format": "biochemical, human", "conditions": "10 μg substrate, 1 μg enzyme, 37° C., pH 7.5, two hours", "procedure": "as §1, §2"}, "(Fucα1,6)GlcNAc-mAb2": {"test_system": "(Fucα1,6)GlcNAc-mAb2", "test": "Transglycosylation activity with SGP as donor, in combination with Endo-M N175Q", "format": "biochemical", "conditions": "donor SGP (50 eq.), Endo-M N175Q 2.5 mU, Endo-Si enzyme 10 μg, 23° C., pH 7.5", "procedure": "Transglycosylation activity was evaluated as follows. A 50 mM (sodium) phosphate buffer (pH 7.5) solution (17 μL) containing (Fucα1,6)GlcNAc-mAb2 (0.5 mg), SGP (0.485 mg (50 eq.)), Endo-M N175Q (manufactured by Tokyo Kasei Kogyo Co., Ltd.) (2.5 mU) and each of various Endo-Si mutant enzymes (10 μg), was prepared and incubated at 23° C. A sample was taken from each of the reaction solutions at 2, 4, 6, 24, and 48 hours after initiation of the reaction and analyzed for protein by a fully automated electrophoresis system as mentioned above. In the chromatogram obtained, an unreacted product and a transglycosylated molecule, mAb2-(SG)2 are confirmed as discrete peaks. The transglycosylation rates were obtained based on the peak area ratio between the unreacted product and the transglycosylated molecule in accordance with the following expression.\nSimilarly, transglycosylation rates of individual Endo-Si mutant enzymes at each time period of a reaction were calculated (Table 6)."}, "human IgG1-4": {"test_system": "human IgG1-4", "test": "Substrate specificity in various antibodies (band shift in electrophoresis)", "format": "biochemical", "conditions": "10 μg substrate, 1 μg enzyme, 37° C., pH 7.5, two hours", "procedure": "as §1, §2"}, "[1]": {"test": "Substrate specificity in various 2-AB labeled sugar chains (HPLC)", "format": "biochemical", "conditions": "37° C., 24 hours", "procedure": "The substrate specificity of Endo-Si in various sugar chains were measured as follows. A 50 mM Tris-HCl buffer (pH 7.5) solution (10 μL) containing 5 pmol of each of various sugar chains labeled with 2-AB (manufactured by Agilent Technologies) and 20 μg of Endo-Si WT, was prepared and incubated at 37° C. for 24 hours, and thereafter treated at 95° C. for 5 minutes to terminate the reaction. The reaction solution was subjected to HPLC analysis carried out under the following conditions.\n[HPLC Analysis Conditions]\nHPLC apparatus: 1200 Infinity LC (manufactured by Agilent Technologies)\nColumn: ACQUITY UPLC Glycan Amide 130 Å, 1.7 μm, 2.1×150 mm (manufactured by Waters)\nColumn temperature: 40° C.\nDetector: Fluorescence detector RF-20Axs (manufactured by Shimadzu Corporation)\nMobile phase A: H2O+0.1% HCOOH\nMobile phase B: Acetonitrile+0.1% HCOOH\nGradient (mobile phase B %): 90% (0 minute), 40% (25 minutes)\nEnzyme activity was calculated based on the peak area ratio between a substrate and a hydrolysate, GlcNAc-2AB. […] Of them, the activity on (specificity to) G0 sugar chain is the highest."}, "[2]": {"test_system": "trastuzumab (mAb1) N297-linked sugar chain", "test": "Hydrolysis activity on antibody sugar chain (sugar chain hydrolysis rate, fully automated electrophoresis)", "format": "biochemical", "conditions": "0.5 hours after initiation of the reaction; 0.1 mg mAb1, 10 ng enzyme, 37° C., pH 7.5", "procedure": "The enzyme obtained in Example 2 was measured for hydrolysis activity by the following method. At this time, EndoS was used as a comparative subject.\nIn sterile water (5 mL), mAb1 (60 mg) was dissolved. The solution was replaced with 50 mM Tris-HCl buffer (pH 7.5) while concentrating the solution by Vivaspin 20 (30,000 MWCO, PES, manufactured by Sartorius).\nA reaction solution containing the mAb1 (0.1 mg) and 10 ng of the enzyme (total volume 50 μL) was prepared and incubated at 37° C. Each of the reaction solutions at 0.5, 1, and 2 hours after initiation of the reaction was sampled and analyzed for protein by a fully automated electrophoresis system as mentioned above. In the chromatogram obtained, an unreacted product and a hydrolysate are confirmed as discrete peaks. From the peak-area ratio between the unreacted product and the hydrolysate, the hydrolysis rate of a sugar chain was calculated in accordance with the following expression."}, "mAb1 [3]": {"test_system": "mAb1", "test": "Evaluation of reaction pH for hydrolysis of mAb1 sugar chain", "format": "biochemical", "procedure": "The hydrolysis rates of a sugar chain with Endo-Si and EndoS at individual pH values were measured as follows. A 50 mM citric acid-sodium phosphate buffer (pH 5.0 or 5.5) solution, sodium phosphate buffer (pH 6.0, 6.5 or 7.0) solution or Tris-HCl buffer (pH 7.5, 8.0, 8.5 or 9.0) solution (50 μL for each) containing 0.1 mg of mAb1, and 10 ng of Endo-Si WT or EndoS WT, was prepared and incubated at 37° C. Each of the reaction solutions at a half hour after initiation of reaction was sampled and the hydrolysis rate of a sugar chain was calculated in accordance with the aforementioned method."}, "mAb1 [4]": {"test_system": "mAb1", "test": "Evaluation of reaction temperature for hydrolysis of mAb1 sugar chain", "format": "biochemical", "procedure": "The hydrolysis rates of a sugar chain with Endo-Si and EndoS at individual temperatures were measured as follows. A 50 mM Tris-HCl buffer (pH 7.5) solution (50 μL) containing 0.1 mg of mAb1 and 10 ng of Endo-Si WT or EndoS WT was prepared and incubated at each temperature of 27, 29, 31, 35, 37, 40, 43, 46, 48, and 50° C. Each of the reaction solutions at a half hour after initiation of a reaction was sampled and the hydrolysis rate of a sugar chain was calculated in accordance with the aforementioned method."}}}
{"molecule": "B1", "values": [{"measurement": "hydrolysis activity on IgE", "setting": "IgE", "value": "no hydrolysis activity"}, {"measurement": "hydrolysis activity on IgA", "setting": "IgA", "value": "no hydrolysis activity"}, {"measurement": "Transglycosylation rate", "setting": "(Fucα1,6)GlcNAc-mAb2; 2 h", "value": 1.2, "unit": "%"}, {"measurement": "Transglycosylation rate", "setting": "(Fucα1,6)GlcNAc-mAb2; 4 h", "value": 1.1, "unit": "%"}, {"measurement": "Transglycosylation rate", "setting": "(Fucα1,6)GlcNAc-mAb2; 6 h", "value": 0.0, "unit": "%"}, {"measurement": "Transglycosylation rate", "setting": "(Fucα1,6)GlcNAc-mAb2; 24 h", "value": 0.0, "unit": "%"}, {"measurement": "Transglycosylation rate", "setting": "(Fucα1,6)GlcNAc-mAb2; 48 h", "value": 0.0, "unit": "%"}, {"measurement": "hydrolysis activity on the 4 subclasses of IgG", "setting": "human IgG1-4", "value": "exhibited hydrolysis activity"}, {"measurement": "Relative activity", "setting": "[1]; substrate 2-AB G0 (agafacto biantennary), reference regarded as 100%", "value": 100, "unit": "%"}, {"measurement": "Relative activity", "setting": "[1]; substrate 2-AB G2 (asfato biantennary), activity against G0 sugar chain regarded as 100%", "value": 73.2, "unit": "%"}, {"measurement": "Relative activity", "setting": "[1]; substrate 2-AB G2F (core-fucosylated biantennary), activity against G0 sugar chain regarded as 100%", "value": 50.1, "unit": "%"}, {"measurement": "Relative activity", "setting": "[1]; substrate 2-AB G2S2 (a2,6) (sialyl biantennary), activity against G0 sugar chain regarded as 100%", "value": 17.1, "unit": "%"}, {"measurement": "Relative activity", "setting": "[1]; substrate 2-AB G3 (triantennary), activity against G0 sugar chain regarded as 100%", "value": "Not detected"}, {"measurement": "Relative activity", "setting": "[1]; substrate 2-AB Man3, activity against G0 sugar chain regarded as 100%", "value": 7.2, "unit": "%"}, {"measurement": "Relative activity", "setting": "[1]; substrate 2-AB Man 5, activity against G0 sugar chain regarded as 100%", "value": 1.9, "unit": "%"}, {"measurement": "Relative activity", "setting": "[1]; substrate 2-AB Man6, activity against G0 sugar chain regarded as 100%", "value": 6.6, "unit": "%"}, {"measurement": "Relative activity", "setting": "[1]; substrate 2-AB Man8, activity against G0 sugar chain regarded as 100%", "value": 5.2, "unit": "%"}, {"measurement": "Relative activity", "setting": "[1]; substrate 2-AB Man9, activity against G0 sugar chain regarded as 100%", "value": 3.3, "unit": "%"}, {"measurement": "hydrolysis rate of a sugar chain", "setting": "[2]", "value": 57.4, "unit": "%"}, {"measurement": "hydrolysis activity compared with EndoS", "setting": "mAb1 [3]; at around pH 6.7 or more", "value": "higher than that of EndoS"}, {"measurement": "optimum pH for hydrolysis: particularly around", "setting": "mAb1 [3]; mAb1, 37° C., half hour reaction, particularly around (pH 7.2 to 8.0)", "value": "~7.5", "unit": "pH"}, {"measurement": "hydrolysis activity compared with EndoS", "setting": "mAb1 [4]; at individual temperatures 27 to 50° C.", "value": "higher hydrolysis activity than EndoS"}, {"measurement": "optimum reaction temperature for hydrolysis: particularly around", "setting": "mAb1 [4]; mAb1, pH 7.5, half hour reaction, particularly around (35° C. to 39° C.)", "value": "around 37 °C"}]}
